According to patent publication US20240392003A1 (NUMAB THERAPEUTICS, published 2024):
Like-named read-outs stand apart in the source and are kept apart here.

Key:
[1] = target: T1, human ROR1 expressed on cells (human, UniProt Q01973 30-937); experiment: cell-based or functional assay
[2] = target: T2, recombinant human CD3 epsilon extra-cellular domain protein (His-Tag, SinoBiological) (human, UniProt P07766 23-126); experiment: SPR; hCD3ε immobilized, two-state fit (kd1)
T2 construct: extracellular domain; Bought; also called hCD3ε; human CD3ε; not shown: His tag

[3] = target: T1, human ROR1 expressed on cells; experiment: flow cytometry, MDA-MB-231 cells, 1 mg/ml hSA
Experimental: After incubation at 4° C. for 1 h in presence of 1 mg/mi of human serum albumin (hSA), plates were washed and incubated with specific detection antibodies.
The binding of anti-ROR1xhSAxCD3 scMATCH3 molecules to plasma membrane human ROR1 was assessed by flow cytometry.

[4] = target: T2, recombinant human CD3 epsilon …; experiment: SPR; hCD3ε immobilized, two-state fit (ka1)
Experimental: (§1) Binding kinetics (including affinity) of the nine selected scMATCH3 molecules to recombinant human CD3 epsilon extra-cellular domain protein (hCD3ε; His-Tag, SinoBiological) were determined by SPR analysis on a T200 device (Biacore, Cytiva). Recombinant hCD3ε molecules were covalently immobilized to a carboxymethylated dextran surface (CM5 sensorchip; Biacore, Cytiva) and a titration series of each MATCH3 molecule was injected as analyte. After each analyte injection-cycle, every flow channel on the sensor chip was regenerated (Glycine, pH 2.0 and 3 M MgCl₂), and a new concentration of MATCH3 molecule was injected. […] The apparent dissociation (kₐ₁) and association (kₐ₁) rate constants, the second reaction constants (kₐ₂ and kd) and the apparent dissociation equilibrium constant (KD) were calculated with the Biacore analysis software (Biacore Evaluation software Version 3.2, Cytiva) using a two-state binding model, and quality of the fits was monitored based on relative Chi2. The binding level was calculated as the maximum stability binding achieved normalized to the theoretical Rmax.

[5] = target: T1, human ROR1 expressed on cells; experiment: cell-based or functional assay; remark: listed apart in the source
[6] = target: T3, recombinant human ROR1 protein (Fc-Tag, Acro Biosystems RO1-H5250) (human, UniProt Q01973 30-406); experiment: SPR; hROR1-Fc immobilized;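 also: biacore T200 SPR with ROR1 covalently coupled to a CM5 chip, analyte titration series, apparent rate and equilibrium constants fitted with a 1:1 Langmuir model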
T3 construct: Bought; also called hROR1; recombinant human ROR1 ECD; not shown: Fc tag

[7] = target: T1, human ROR1 expressed on cells; experiment: cell-based or functional assay; remark: listed apart in the source
[8] = target: T1, human ROR1 expressed on cells; experiment: cell-based or functional assay; remark: listed apart in the source
[9] = target: T2, recombinant human CD3 epsilon …; experiment: SPR; hCD3ε immobilized, two-state fit;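 also: biacore T200 measurement with target covalently coupled to a CM5 chip, antibody constructs injected as analyte over a concentration series, constants derived in Biacore Evaluation software 3.2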
Experimental: as §1

Binder | Avg. % max. lysis (JIMT-1) [1] [%] | Avg. % max. lysis (MDA-MB-231) [1] [%] | Avg. % max. lysis (SKOV3) [1] [%] | Avg. EC50 (nM) CD8 T cell act. (MDA-MB-231) [1] [nM] | Avg. EC50 (nM) CD8 T cell act. (SKOV3) [1] [nM] | Avg. EC50 (nM) Cytotoxicity (JIMT-1) [1] [nM] | Avg. EC50 (nM) Cytotoxicity (MDA-MB-231) [1] [nM] | Avg. EC50 (nM) Cytotoxicity (SKOV3) [1] [nM] | koff [2] [s⁻¹] | EC50 [3] [nM] | Rel. maximum binding (MFIscMATCH3/MFIPRO2213) [3] | kon [4] [M⁻¹ s⁻¹] | Avg. % max. CD8 T cell act. (JIMT-1) [5] [%] | Kd [6] [nM] | koff [6] [s⁻¹] | kon [6] [M⁻¹ s⁻¹] | EC50 (nM) Cytotoxicity (MDA-MB-231) [7] [nM] | Kd [9] [nM] | ka2 [9] [s⁻¹] | kd2 [9] [s⁻¹] | also measured
PRO2507 (bispecific antibody, trispecific anti-ROR1 x hSA x CD3 scMATCH3, single chain; also called 19-04-A10-sc06 scDb-o/28-21-D09-sc04 scDb-i/55-38-D07-sc02-scFv) AFELTQSPSSLSASVGDRVTITCQASESINSRLAWYQQKPGQPPKLLIYDASDLTSGVPSRFSGSGSGTDFTLTISSLQPEDFATYYCQGYGGSSTTTFGCGTKLTVLGGGGGSEVQLVESGGGLVQPGGSLRLSCAASGFSLSSYDMSWVRQAPGKGLAWIGASYASGPTYYASWAKGRFTISRDNSKNTVYLQMNSLRAEDTATYFCARGGWTGTSHSNIWGQGTLVTVSSGGGGSGGGGSGGGGSGGGGSDIQMTQSPSSLSASVGDRVTITCQSSQSVFSNNYLAWFQQKPGQSPKRLIYSASTLASGVPSRFSGSGSGTDFTLTISSLQPEDFATYYCLGSYACSSADCYVFGTGTKVTVLGGGGGSEVQLVESGGGLVQPGGSLRLSCAASGFSLSSYAMNWVRQAPGKCLEWIGHINAGDIAYYATWAKGRFTISRDNSKNTVYLQMNSLRAEDTAVYFCARGAGGFSTGPFKLWGQGTLVTVSSGGGGSGGGGSDVQMTQSPSSLSASVGDRVTITCRASENIYSGLAWYQQKPGKPPKLLIYRASTLASGVSSRFSGSGSGTDFTLTISSLQPEDFATYYCQGGYYSSSSTYIAFGTGTKVTVLGGGGGSGGGGSGGGGSGGGGSQSQVVESGGGLVQPGGSLRLSCAVSGFDLSSYAVSWVRQAPGKGLEWIGIIYPRANTYYASWAKGRFTISKDNSKNTVYLQMNSLRAEDTAVYFCARDRYDSGAYLYTTYFNLWGQGTLVTVSS | 63.9 | 64.6 | 79.1 | 0.36 | 0.34 | 2 | 0.47 | 0.42 | 0.006 | 26.9 | 2.88 | 340000 | 40.8 | < 0.12 | < 1e-05 | 82000 | 1 | 9.4 | 0.0069 | 0.0078 | Avg. % max. CD8 T cell act. (MDA-MB-231) [5]: 68%; Avg. % max. CD8 T cell act. (SKOV3) [5]: 64.3%; Avg. EC50 (nM) CD8 T cell act. (JIMT-1) [5]: 2.9 nM; Avg. EC50 (nM) CD8 T cell act. (MDA-MB-231) [5]: 0.36 nM; Avg. EC50 (nM) CD8 T cell act. (SKOV3) [5]: 0.34 nM; Avg. % max. CD4 T cell act. (JIMT-1) [8]: 63.2%; Avg. % max. CD4 T cell act. (MDA-MB-231) [8]: 81.8%; Avg. % max. CD4 T cell act. (SKOV3) [8]: 83.3%; Avg. EC50 (nM) CD4 T cell act. (JIMT-1) [8]: 2.4 nM; Avg. EC50 (nM) CD4 T cell act. (MDA-MB-231) [8]: 0.14 nM; Avg. EC50 (nM) CD4 T cell act. (SKOV3) [8]: 0.22 nM
PRO2557 (bispecific antibody, trispecific anti-ROR1 x hSA x CD3 scMATCH3, single chain; also called 19-04-A10-sc06 scDb-o/28-21-D09-sc04 scDb-i/55-39-G02-sc06-scFv) AFELTQSPSSLSASVGDRVTITCQASESINSRLAWYQQKPGQPPKLLIYDASDLTSGVPSRFSGSGSGTDFTLTISSLQPEDFATYYCQGYGGSSTTTFGCGTKLTVLGGGGGSEVQLVESGGGLVQPGGSLRLSCAASGFSLSSYDMSWVRQAPGKGLAWIGASYASGPTYYASWAKGRFTISRDNSKNTVYLQMNSLRAEDTATYFCARGGWTGTSHSNIWGQGTLVTVSSGGGGSGGGGSGGGGSGGGGSDIQMTQSPSSLSASVGDRVTITCQSSQSVFSNNYLAWFQQKPGQSPKRLIYSASTLASGVPSRFSGSGSGTDFTLTISSLQPEDFATYYCLGSYACSSADCYVFGTGTKVTVLGGGGGSEVQLVESGGGLVQPGGSLRLSCAASGFSLSSYAMNWVRQAPGKCLEWIGHINAGDIAYYATWAKGRFTISRDNSKNTVYLQMNSLRAEDTAVYFCARGAGGFSTGPFKLWGQGTLVTVSSGGGGSGGGGSAQQLTQSPSSLSASVGDRVTITCQASQNVWNNNYLSWFQQKPGKPPKLLIVTASTLASGVSSRFSGSGSGTDFTLTISSLQPEDFATYYCAGGFSGEIRAFGCGTKVTVLGGGGGSGGGGSGGGGSGGGGSQSQLVESGGGLVQPGGSLRLSCAVSGIDLSRNAMSWVRQAPGKCLEWIGIILTSGSTYYASWAKGRFTISKTSTTLDLQMNSLRAEDTAVYFCVRGIASSSLKSFWGQGTLVTVSS | 83 | 78.2 | 88 | 0.52 | 1.2 | 3.4 | 0.74 | 1.3 | 0.0031 | 3.27 | 2.43 | 430000 | 48.7 | 1.6 | 0.00067 | 420000 | 3.1 | 5.5 | 0.00042 | 0.0014 | Avg. % max. CD8 T cell act. (MDA-MB-231) [5]: 65.3%; Avg. % max. CD8 T cell act. (SKOV3) [5]: 81.5%; Avg. EC50 (nM) CD8 T cell act. (JIMT-1) [5]: 5.4 nM; Avg. EC50 (nM) CD8 T cell act. (MDA-MB-231) [5]: 0.52 nM; Avg. EC50 (nM) CD8 T cell act. (SKOV3) [5]: 1.2 nM; Avg. % max. CD4 T cell act. (JIMT-1) [8]: 69.3%; Avg. % max. CD4 T cell act. (MDA-MB-231) [8]: 77.7%; Avg. % max. CD4 T cell act. (SKOV3) [8]: 87.5%; Avg. EC50 (nM) CD4 T cell act. (JIMT-1) [8]: 3.3 nM; Avg. EC50 (nM) CD4 T cell act. (MDA-MB-231) [8]: 0.2 nM; Avg. EC50 (nM) CD4 T cell act. (SKOV3) [8]: 0.55 nM
PRO2510 (bispecific antibody, trispecific anti-ROR1 x hSA x CD3 scMATCH3, single chain; also called 19-04-A10-sc06 scDb-o/28-21-D09-sc04 scDb-i/55-39-G02-sc05-scFv) AFELTQSPSSLSASVGDRVTITCQASESINSRLAWYQQKPGQPPKLLIYDASDLTSGVPSRFSGSGSGTDFTLTISSLQPEDFATYYCQGYGGSSTTTFGCGTKLTVLGGGGGSEVQLVESGGGLVQPGGSLRLSCAASGFSLSSYDMSWVRQAPGKGLAWIGASYASGPTYYASWAKGRFTISRDNSKNTVYLQMNSLRAEDTATYFCARGGWTGTSHSNIWGQGTLVTVSSGGGGSGGGGSGGGGSGGGGSDIQMTQSPSSLSASVGDRVTITCQSSQSVFSNNYLAWFQQKPGQSPKRLIYSASTLASGVPSRFSGSGSGTDFTLTISSLQPEDFATYYCLGSYACSSADCYVFGTGTKVTVLGGGGGSEVQLVESGGGLVQPGGSLRLSCAASGFSLSSYAMNWVRQAPGKCLEWIGHINAGDIAYYATWAKGRFTISRDNSKNTVYLQMNSLRAEDTAVYFCARGAGGFSTGPFKLWGQGTLVTVSSGGGGSGGGGSAQQLTQSPSSLSASVGDRVTITCQASQNVWNNNYLSWFQQKPGKPPKLLIVTASTLASGVSSRFSGSGSGTDFTLTISSLQPEDFATYYCAGGFSGEIRAFGCGTKVTVLGGGGGSGGGGSGGGGSGGGGSQSQLVESGGGLVQPGGSLRLSCAVSGLSLSRNAMSWVRQAPGKCLEWIGIILTSGSTYYASWAKGRFTISKDNSKNTVYLQMNSLRAEDTAVYFCVRGIASSSLKSFWGQGTLVTVSS | 72.1 | 65.5 | 83.1 | 0.087 | 0.19 | 1.1 | 0.14 | 0.25 | 0.0036 | 1.36 | 2.61 | 1e+06 | 47.6 | 0.46 | 0.0006 | 1.3e+06 | 0.43 | 2.1 | 0.0013 | 0.002 | Avg. % max. CD8 T cell act. (MDA-MB-231) [5]: 70.4%; Avg. % max. CD8 T cell act. (SKOV3) [5]: 79.3%; Avg. EC50 (nM) CD8 T cell act. (JIMT-1) [5]: 1.1 nM; Avg. EC50 (nM) CD8 T cell act. (MDA-MB-231) [5]: 0.087 nM; Avg. EC50 (nM) CD8 T cell act. (SKOV3) [5]: 0.19 nM; Avg. % max. CD4 T cell act. (JIMT-1) [8]: 68%; Avg. % max. CD4 T cell act. (MDA-MB-231) [8]: 82%; Avg. % max. CD4 T cell act. (SKOV3) [8]: 87.3%; Avg. EC50 (nM) CD4 T cell act. (JIMT-1) [8]: 0.8 nM; Avg. EC50 (nM) CD4 T cell act. (MDA-MB-231) [8]: 0.036 nM; Avg. EC50 (nM) CD4 T cell act. (SKOV3) [8]: 0.13 nM
PRO2509 (bispecific antibody, trispecific anti-ROR1 x hSA x CD3 scMATCH3, single chain; also called 19-04-A10-sc06 scDb-o/28-21-D09-sc04 scDb-i/55-39-G02-sc02-scFv) AFELTQSPSSLSASVGDRVTITCQASESINSRLAWYQQKPGQPPKLLIYDASDLTSGVPSRFSGSGSGTDFTLTISSLQPEDFATYYCQGYGGSSTTTFGCGTKLTVLGGGGGSEVQLVESGGGLVQPGGSLRLSCAASGFSLSSYDMSWVRQAPGKGLAWIGASYASGPTYYASWAKGRFTISRDNSKNTVYLQMNSLRAEDTATYFCARGGWTGTSHSNIWGQGTLVTVSSGGGGSGGGGSGGGGSGGGGSDIQMTQSPSSLSASVGDRVTITCQSSQSVFSNNYLAWFQQKPGQSPKRLIYSASTLASGVPSRFSGSGSGTDFTLTISSLQPEDFATYYCLGSYACSSADCYVFGTGTKVTVLGGGGGSEVQLVESGGGLVQPGGSLRLSCAASGFSLSSYAMNWVRQAPGKCLEWIGHINAGDIAYYATWAKGRFTISRDNSKNTVYLQMNSLRAEDTAVYFCARGAGGFSTGPFKLWGQGTLVTVSSGGGGSGGGGSAQQLTQSPSSLSASVGDRVTITCQASQNVWNNNYLSWFQQKPGKPPKLLIVTASTLASGVSSRFSGSGSGTDFTLTISSLQPEDFATYYCAGGFSGEIRAFGTGTKVTVLGGGGGSGGGGSGGGGSGGGGSQSQLVESGGGLVQPGGSLRLSCAVSGLSLSRNAMSWVRQAPGKGLEWIGIILTSGSTYYASWAKGRFTISKDNSKNTVYLQMNSLRAEDTAVYFCVRGIASSSLKSFWGQGTLVTVSS |  |  |  |  |  |  |  |  | 0.0034 | 1.12 | 2.57 | 1e+06 |  | 0.36 | 0.00047 | 1.3e+06 | 0.31 | 2.1 | 0.00096 | 0.0016 | 
